Each block holds one molecule with its values, some of them ahead of it.
How the values were obtained:
[1] = target: Murine CD40L on the Th2 cell line D10.G4.1 (murine) (UniProt P27548)
[2] = target: TRAIL R2-Fc fusion protein (human) (UniProt O14763); test: competition ELISA: inhibition of binding of 0.75 nM biotinylated TRAIL R2-Fc to plate-coated A9(1C12)
[3] = target: TRAIL R2 (recombinant, form not given) (human, UniProt O14763, biotin (in the capture ELISA and the competition ELISA of Example 14)); test: SPR (ProteOn XPR36), TRAIL R2 immobilised, equilibrium analysis
[4] = target: TRAIL R2-Fc fusion protein (human) (UniProt O14763); test: competition ELISA on plate-coated A9(1C12)
[5] = target: TRAIL R2 expressed on the cell surface (human, UniProt O14763); test: cell-based or functional assay

Chain of TRAIL R2-Fc fusion protein (human) (O14763 56-182 limits assumed): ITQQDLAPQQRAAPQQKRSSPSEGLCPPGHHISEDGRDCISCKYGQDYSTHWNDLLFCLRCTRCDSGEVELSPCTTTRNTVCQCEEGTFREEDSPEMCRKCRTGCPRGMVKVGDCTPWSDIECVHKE

- IC50, inhibition of Murine CD40L-induced CD86 expression on CD19 gated B cells [1]: 100 µM
Molecule: MR1 antibody

- IC50 [2]: 16 nM
- Fold Improvement (Kd, against lead clone 1C12) [3]: 40 fold
- Kd [3]: 103 nM
B1: A1(1E11) (designed binder)
chain: AIEVKDVTDTTALITWAKPWVDPPPLWGCELAYGIKDVPGDRTTIDLQQKHTAYSIGNLKPDTEYEVSLICFDPYGAKSNPAKETFTTGGGTLGHHHHHHHH

- IC50 [2]: 0.5 nM
- fold higher affinity relative to the monomeric A1 protein [4]: 30 to 40 fold
- fold lower IC50 than the monomer A1 [4]: > 30 fold
B2: A2(1E11) (designed binder)
chain: SGGGGSAIEVKDVTDTTALITWAKPWVDPPPLWGCELAYGIKDVPGDRTTIDLQQKHTAYSIGNLKPDTEYEVSLICFDPYGAKSNPAKETFTTGGGGSGGGGSGGGGSAIEVKDVTDTTALITWAKPWVDPPPLWGCELAYGIKDVPGDRTTIDLQQKHTAYSIGNLKPDTEYEVSLICFDPYGAKSNPAKETFTTGGGGSGGGGSGTLGHHHHHHHH

- IC50 [2]: 0.4 nM
- fold higher affinity relative to the monomeric A1 protein [4]: 30 to 40 fold
- fold lower IC50 than the monomer A1 [4]: > 30 fold
- Maximum Inhibition %, H2122 cells [5]: 91%
B3: A3(1E11) (designed binder)
chain: SGGGGSAIEVKDVTDTTALITWAKPWVDPPPLWGCELAYGIKDVPGDRTTIDLQQKHTAYSIGNLKPDTEYEVSLICFDPYGAKSNPAKETFTTGGGGSGGGGSGGGGSAIEVKDVTDTTALITWAKPWVDPPPLWGCELAYGIKDVPGDRTTIDLQQKHTAYSIGNLKPDTEYEVSLICFDPYGAKSNPAKETFTTGGGGSGGGGSGGGGSAIEVKDVTDTTALITWAKPWVDPPPLWGCELAYGIKDVPGDRTTIDLQQKHTAYSIGNLKPDTEYEVSLICFDPYGAKSNPAKETFTTGGGGSGGGGSGGGGSAIEVKDVTDTTALITWAKPWVDPPPLWGCELAYGIKDVPGDRTTIDLQQKHTAYSIGNLKPDTEYEVSLICFDPYGAKSNPAKETFTTGGGGSGGGGSGTLGHHHHHHHH
- EC50, killing of H2122 cells [5]: 0.013 nM

— US9212231B2, “TRAIL R2-specific multimeric scaffolds” (MEDIMMUNE, LLC, dated 2015)
